Columns and labels:
[1] = target: human fibronectin (human); experiment: ELISA; solid-phase binding: elastin (50 μg/ml), fibrinogen (10 μg/ml) or fibronectin (10 μg/ml) coated on microtitre wells; purified rFnBPB N23 in PBS added, 37°C for 2 hr; bound protein detected with anti-hexahistidine monoclonal antibody 7E8
[2] = target: human fibronectin (human); experiment: SPR; BIAcore X100; fibrinogen, elastin or fibronectin amine-coupled to CM5 chips; rN23 type I passed over at 0.15 μM to 10 μM in PBS; blank flow cell subtracted; equilibrium dissociation constants
[3] = target: human aortic elastin (human) (UniProt P15502); experiment: ELISA; solid-phase binding: elastin (50 μg/ml), fibrinogen (10 μg/ml) or fibronectin (10 μg/ml) coated on microtitre wells; purified rFnBPB N23 in PBS added, 37°C for 2 hr; bound protein detected with anti-hexahistidine monoclonal antibody 7E8
human fibrinogen (human) = human fibrinogen (human) (UniProt P02671); experiment: as above
human aortic elastin [4] = target: T1, human aortic elastin (human, UniProt P15502 27-786); experiment: as above; conditions: both partners purified
T1 construct: elastin from human aorta; Tissue elastin is a cross-linked material; The vendor named for the ELISA differs from that named for the SPR; source: bought: Elastin Products Company (ELISA); Enzyme Research Laboratories (SPR)
T1 sequence: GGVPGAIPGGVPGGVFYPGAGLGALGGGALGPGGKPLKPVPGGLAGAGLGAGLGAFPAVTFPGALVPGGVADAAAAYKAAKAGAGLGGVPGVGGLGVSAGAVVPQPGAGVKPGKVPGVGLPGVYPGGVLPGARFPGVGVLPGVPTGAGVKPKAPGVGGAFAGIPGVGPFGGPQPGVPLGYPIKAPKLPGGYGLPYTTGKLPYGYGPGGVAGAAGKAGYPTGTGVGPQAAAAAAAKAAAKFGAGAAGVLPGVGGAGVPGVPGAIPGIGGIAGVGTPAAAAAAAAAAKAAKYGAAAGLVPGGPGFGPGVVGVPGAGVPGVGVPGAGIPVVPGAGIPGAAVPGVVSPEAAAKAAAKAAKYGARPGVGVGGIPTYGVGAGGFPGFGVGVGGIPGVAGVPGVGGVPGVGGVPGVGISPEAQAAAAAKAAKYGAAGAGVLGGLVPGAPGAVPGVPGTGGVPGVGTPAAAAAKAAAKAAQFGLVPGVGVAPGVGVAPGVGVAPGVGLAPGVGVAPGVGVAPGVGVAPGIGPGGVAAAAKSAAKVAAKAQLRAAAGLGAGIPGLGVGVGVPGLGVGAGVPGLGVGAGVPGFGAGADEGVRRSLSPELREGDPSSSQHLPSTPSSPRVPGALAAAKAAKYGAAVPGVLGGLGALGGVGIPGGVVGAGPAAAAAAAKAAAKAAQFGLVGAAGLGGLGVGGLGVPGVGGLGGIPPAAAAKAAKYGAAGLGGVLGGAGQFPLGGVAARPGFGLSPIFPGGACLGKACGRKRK

human fibrinogen [5] = target: T2, human fibrinogen (human, UniProt P02671-2 20-644; P02675 31-491; P02679-2 27-437); experiment: as above; conditions: both partners purified
T2 construct: fibrinogen alpha chain, human; fibrinogen beta chain, human; fibrinogen gamma chain, human; source: bought: Calbiochem; copies: + +
T2 sequence 1: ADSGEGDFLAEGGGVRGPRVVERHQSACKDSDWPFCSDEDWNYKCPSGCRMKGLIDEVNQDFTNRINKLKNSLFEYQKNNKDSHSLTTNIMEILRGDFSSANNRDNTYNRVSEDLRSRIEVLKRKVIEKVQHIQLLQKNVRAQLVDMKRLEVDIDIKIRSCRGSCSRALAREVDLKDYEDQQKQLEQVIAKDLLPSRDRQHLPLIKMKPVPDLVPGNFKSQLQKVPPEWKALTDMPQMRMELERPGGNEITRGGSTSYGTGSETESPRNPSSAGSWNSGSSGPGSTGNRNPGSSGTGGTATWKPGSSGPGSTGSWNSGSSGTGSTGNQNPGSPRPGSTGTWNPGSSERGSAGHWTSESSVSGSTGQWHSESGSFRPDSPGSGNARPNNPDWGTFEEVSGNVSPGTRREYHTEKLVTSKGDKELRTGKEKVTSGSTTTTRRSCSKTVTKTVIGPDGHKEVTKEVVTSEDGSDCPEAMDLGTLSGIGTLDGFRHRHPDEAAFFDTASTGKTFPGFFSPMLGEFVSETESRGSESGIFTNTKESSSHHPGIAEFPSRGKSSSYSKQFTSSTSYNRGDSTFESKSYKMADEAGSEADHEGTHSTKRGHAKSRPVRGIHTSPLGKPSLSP
T2 sequence 2: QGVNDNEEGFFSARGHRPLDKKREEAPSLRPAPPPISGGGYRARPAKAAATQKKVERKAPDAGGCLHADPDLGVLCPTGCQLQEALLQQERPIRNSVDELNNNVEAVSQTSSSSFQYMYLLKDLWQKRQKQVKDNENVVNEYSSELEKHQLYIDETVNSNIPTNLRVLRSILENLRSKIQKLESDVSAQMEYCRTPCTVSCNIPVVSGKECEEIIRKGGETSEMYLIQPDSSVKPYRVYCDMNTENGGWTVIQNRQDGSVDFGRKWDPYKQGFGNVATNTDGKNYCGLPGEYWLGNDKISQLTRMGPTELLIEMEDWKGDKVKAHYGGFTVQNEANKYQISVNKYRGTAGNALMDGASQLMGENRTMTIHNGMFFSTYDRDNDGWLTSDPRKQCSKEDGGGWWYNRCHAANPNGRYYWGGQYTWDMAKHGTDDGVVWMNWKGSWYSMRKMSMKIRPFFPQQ
T2 sequence 3: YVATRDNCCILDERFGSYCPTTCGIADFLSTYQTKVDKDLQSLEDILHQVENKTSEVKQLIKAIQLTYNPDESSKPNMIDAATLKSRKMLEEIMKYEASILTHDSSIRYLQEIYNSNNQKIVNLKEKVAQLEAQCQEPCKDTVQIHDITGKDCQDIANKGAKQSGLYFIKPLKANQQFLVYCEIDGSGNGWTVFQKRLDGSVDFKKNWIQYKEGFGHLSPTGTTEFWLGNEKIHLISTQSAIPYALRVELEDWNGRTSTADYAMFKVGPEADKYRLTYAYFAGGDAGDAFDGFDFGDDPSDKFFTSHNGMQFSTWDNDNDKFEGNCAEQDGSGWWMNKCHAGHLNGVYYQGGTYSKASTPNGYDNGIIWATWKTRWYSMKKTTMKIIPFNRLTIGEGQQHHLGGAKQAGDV

human aortic elastin [6] = target: T1, human aortic elastin; experiment: SPR; BIAcore X100; fibrinogen, elastin or fibronectin amine-coupled to CM5 chips; rN23 type I passed over at 0.15 μM to 10 μM in PBS; blank flow cell subtracted; equilibrium dissociation constants; conditions: both partners purified
human fibrinogen [7] = target: T2, human fibrinogen; experiment: as above; conditions: both partners purified

recombinant FnBPB N23 isotype I (residues 162-480) from S. aureus strain 8325-4 (from UniProt A0A0H2XKG3 162-480) (domain or fragment)
EC50 [1]: 1500 nM
Kd [2]: 2500 nM

recombinant FnBPB N23 isotype II from S. aureus strain N315 (domain or fragment)
EC50 [3]: 900 nM
EC50 (human fibrinogen (human)): 500 nM
EC50 [1]: 1500 nM

recombinant FnBPB N23 isotype III from S. aureus strain MSSA476 (domain or fragment)
EC50 [3]: 900 nM
EC50 (human fibrinogen (human)): 500 nM
EC50 [1]: 1500 nM

recombinant FnBPB N23 isotype IV from S. aureus strain P1 (domain or fragment)
EC50 [3]: 900 nM
EC50 (human fibrinogen (human)): 500 nM
EC50 [1]: 1500 nM

recombinant FnBPB N23 isotype V from S. aureus strain 2 (domain or fragment)
EC50 [3]: 900 nM
EC50 (human fibrinogen (human)): 500 nM
EC50 [1]: 1500 nM

recombinant FnBPB N23 isotype VI from S. aureus strain 3077 (domain or fragment)
EC50 [3]: 900 nM
EC50 (human fibrinogen (human)): 500 nM
EC50 [1]: 1500 nM

recombinant FnBPB N23 isotype VII from S. aureus strain 233 (domain or fragment)
EC50 [3]: 900 nM
EC50 (human fibrinogen (human)): 500 nM
EC50 [1]: 1500 nM

B1: recombinant FnBPB N23 isotype I (residues 162-480) from S. aureus strain 8325-4 (domain or fragment)
chain: TGTDVTNKVEVEEGSEIVGHKQDTNVVNPHNAERVTLKYKWKFGEGIKAGDYFDFTLSDNVETHGISTLRKVPEIKSTDGQVMATGEIIGERKVRYTFKEYVQEKKDLTAELSLNLFIDPTTVTQKGNQNVEVKLGETTVSKIFNIQYLGGVRDNWGVTANGRIDTLNKVDGKFSHFAYMKPNNQSLSSVTVTGQVTKGNKPGVNNPTVKVYKHIGSDDLAESVYAKLDDVSKFEDVTDNMSLDFDTNGGYSLNFNNLDQSKNYVIKYEGYYDSNASNLEFQTHLFGYYNYYYTSNLTWKNGVAFYSNNAQGDGKDKLK
notes: cloned BamHI/SmaI into pQE30 with a 3' stop codon; also called rN23 isotype I; rN23 type I; source: E. coli TOPP 3, pQE30, purified (Ni2+ chelate chromatography); not shown: His6, N-terminal, kept
EC50 (human aortic elastin [4]): ~900 nM
EC50 (human fibrinogen [5]): ~500 nM
Kd (human aortic elastin [6]): 3200 nM
Kd (human fibrinogen [7]): 2000 nM

Source: publication PMC2894786, “Fibronectin-binding protein B variation in Staphylococcus aureus” (BMC Microbiology, 2010)
